Measured values as given in the supplement of paper PMC7877785.
± gives the uncertainty stated by the source.

Assay: self-splicing fitness, log relative to wild type (ln ratio); higher = more splicing; Tetrahymena group I intron in knt gene, E. coli kanamycin selection, DiMSum; sequences stand for … in CUCUCU…GGAGGGAAAAGUUAUCAGGCAUGCACCUGGUAGCUAGUCUUUAAACCAAUAGAUUGCAUCGGUUUAAAAGGCAAGACCGUCAAAUUGCGGGAAAGGGGUCAACAGCCGUUCAGUACCAAGUCUCAGGGGAAACUUUGAGAUGGCCUUGCAAAGGGUAUGGUAAUAAGCUGACGGACAUGGUCCUAACCACGCAGCCAAGUCCUAAGUCAACAGAUCUUCUGUUGAUAUGGAUGCAGUUCACAGACUAAAUGUCGGUCGGGGAAGAUGUAUUCUUCUCAUAAGAUAUAGUCGGACCUCUCCUUAAUGGGAGCUAGCGGAUGAAGUGAUGCAACACUGGAGCCGCUGGGAACUAAUUUGUAUGCGAAAGUAUAUUGAUUAGUUUUGGAGUACUCGUGGUCG
In short: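 Pooled colonies went to amplicon sequencing on an Illumina HiSeq 2500 after six replicate transformations. The plates were LB agar with 100 μg/mL carbenicillin, 50 μM IPTG and 0.2% rhamnose, with or without 25 μg/mL kanamycin, incubated overnight at 37°C or 30°C. The E. coli BL21(DE3) library had all eight P1ex-region intron nucleotides randomised, the intron placed in the knt kanamycin-resistance gene on pET-22b(+). DiMSum fitness is the error-weighted combination of replicate fold changes, kanamycin against none, normalised to wild type.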

Sequence | self-splicing fitness (ln) (30 °C) | self-splicing fitness (ln) (37 °C)
GAACAGCAAUAUUACGGCAA | -0.669 ± 0.094 | -0.372 ± 0.091
GAACAGCAAUAUUACGGGCU | -3.02 ± 0.15 | -0.92 ± 0.11
GAACAGCAAUAUUACGGGGC | -3.05 ± 0.15 | -3.3 ± 0.21
GAACAGCAAUAUUACGGGGU | -2.39 ± 0.081 | -2.57 ± 0.15
GAACAGCAAUAUUACGGUGA | -1.08 ± 0.071 | 0.0381 ± 0.08
GAACAGCAAUAUUACGUCCC | -1.98 ± 0.16 | -1.25 ± 0.19
GAACAGCAAUAUUACGUCCU | -1.24 ± 0.09 | -0.941 ± 0.11
GAACAGCAAUAUUACGUUAU | -2.01 ± 0.066 | -1.13 ± 0.077
GAACAGCAAUAUUACGUUGU | -3.8 ± 0.21 | -2.24 ± 0.12
GAAGAGCAAUAUUACGAAAC | -2.57 ± 0.27 | -1.38 ± 0.39
GAAGAGCAAUAUUACGAGCU | -4.07 ± 0.21 | -1.61 ± 0.14
GAAGAGCAAUAUUACGAGGG | -3.54 ± 0.2 | -3.02 ± 0.28
GAAGAGCAAUAUUACGAGGU | -4.02 ± 0.39 | -3.52 ± 0.33
GAAGAGCAAUAUUACGAGUC | -4.22 ± 0.46 | -2.8 ± 0.47
GAAGAGCAAUAUUACGCUGG | -1.92 ± 0.24 | –
GAAGAGCAAUAUUACGCUUU | -4.12 ± 0.3 | -1.91 ± 0.28
GAAGAGCAAUAUUACGGAGG | -2.48 ± 0.2 | -2.01 ± 0.31
GAAGAGCAAUAUUACGGCCU | -1.15 ± 0.14 | -0.824 ± 0.19
GAAGAGCAAUAUUACGGCUC | -1.85 ± 0.24 | -2.06 ± 0.3
GAAGAGCAAUAUUACGGUUG | -3.86 ± 0.35 | -2.18 ± 0.38
GAAGAGCAAUAUUACGUAGC | -2.27 ± 0.21 | -2.31 ± 0.21
GAAGAGCAAUAUUACGUAUC | -3.42 ± 0.21 | -3.41 ± 0.22
GAAGAGCAAUAUUACGUCAA | -3.04 ± 0.27 | -2.16 ± 0.22
GAAGAGCAAUAUUACGUCAC | – | -2.13 ± 0.23

Sequence | self-splicing fitness (ln) (30 °C) | self-splicing fitness (ln) (37 °C)
GAAGAGCAAUAUUACGUCGA | -1.47 ± 0.21 | -1.76 ± 0.31
GAAGAGCAAUAUUACGUCGG | -3.36 ± 0.3 | -2.37 ± 0.3
GAAGAGCAAUAUUACGUGCC | -3.3 ± 0.19 | -1.81 ± 0.23
GAAGAGCAAUAUUACGUGGC | -2.97 ± 0.24 | -3.01 ± 0.33
GAAGAGCAAUAUUACGUGGG | -3.22 ± 0.16 | -3.05 ± 0.2
GAAGAGCAAUAUUACGUUCC | -4.33 ± 0.28 | -2.04 ± 0.31
GAAGAGCAAUAUUACGUUGA | -3.21 ± 0.19 | -2.63 ± 0.2
GAAGAGCAAUAUUACGUUGU | -3.56 ± 0.28 | -2.83 ± 0.24
GAAGAGCAAUAUUACGUUUA | -1.61 ± 0.15 | -2.56 ± 0.2
GAAUAGCAAUAUUACGACCU | -0.378 ± 0.11 | 0.363 ± 0.13
GAAUAGCAAUAUUACGACGG | -3.32 ± 0.36 | -1.1 ± 0.19
GAAUAGCAAUAUUACGAGGA | -2.85 ± 0.33 | -1.5 ± 0.18
GAAUAGCAAUAUUACGAGGU | -4 ± 0.36 | -2.61 ± 0.24
GAAUAGCAAUAUUACGAGUA | -2.44 ± 0.17 | -1.98 ± 0.17
GAAUAGCAAUAUUACGAUAA | -1.51 ± 0.1 | -0.77 ± 0.13
GAAUAGCAAUAUUACGAUCG | 1.29 ± 0.19 | -0.178 ± 0.27
GAAUAGCAAUAUUACGCAGC | -2.72 ± 0.2 | -1.93 ± 0.2
GAAUAGCAAUAUUACGCCCA | -0.91 ± 0.17 | -0.732 ± 0.24
GAAUAGCAAUAUUACGCGGU | -2.24 ± 0.15 | -2.75 ± 0.27
GAAUAGCAAUAUUACGCUCC | – | -1.37 ± 0.33
GAAUAGCAAUAUUACGCUCG | 0.178 ± 0.15 | -0.999 ± 0.16
GAAUAGCAAUAUUACGCUGC | -3.36 ± 0.45 | -3.32 ± 0.32
GAAUAGCAAUAUUACGGAAA | -1.98 ± 0.16 | -1.31 ± 0.14
GAAUAGCAAUAUUACGGAAG | -4.14 ± 0.39 | -2.1 ± 0.25

Sequence | self-splicing fitness (ln) (30 °C) | self-splicing fitness (ln) (37 °C)
GAAUAGCAAUAUUACGGACA | -0.557 ± 0.12 | -0.0249 ± 0.16
GAAUAGCAAUAUUACGGCAG | -3.67 ± 0.39 | -1.93 ± 0.25
GAAUAGCAAUAUUACGGCGU | -0.554 ± 0.15 | 0.178 ± 0.16
GAAUAGCAAUAUUACGGCUG | -0.443 ± 0.083 | -0.941 ± 0.1
GAAUAGCAAUAUUACGGGUA | -2.2 ± 0.19 | -1.2 ± 0.14
GAAUAGCAAUAUUACGGUAA | -2.25 ± 0.16 | -0.943 ± 0.13
GAAUAGCAAUAUUACGGUAC | -1.1 ± 0.13 | -0.802 ± 0.2
GAAUAGCAAUAUUACGGUAG | -2.88 ± 0.12 | -2.22 ± 0.16
GAAUAGCAAUAUUACGGUCG | -0.153 ± 0.098 | -0.479 ± 0.12
GAAUAGCAAUAUUACGUAAU | -2.99 ± 0.13 | -0.789 ± 0.11
GAAUAGCAAUAUUACGUACC | -0.757 ± 0.19 | -0.37 ± 0.3
GAAUAGCAAUAUUACGUCCA | -1.28 ± 0.1 | -0.00949 ± 0.13
GAAUAGCAAUAUUACGUCCU | -1.05 ± 0.11 | 0.425 ± 0.15
GAAUAGCAAUAUUACGUCGC | -0.78 ± 0.12 | -0.38 ± 0.17
GAAUAGCAAUAUUACGUCGG | -3.21 ± 0.12 | -3.19 ± 0.2
GAAUAGCAAUAUUACGUUCC | -3.17 ± 0.32 | –
GACAAGCAAUAUUACGAAGA | -2.94 ± 0.17 | -1.19 ± 0.13
GACAAGCAAUAUUACGACAU | -0.624 ± 0.011 | -0.191 ± 0.032
GACAAGCAAUAUUACGAGUC | -1.85 ± 0.15 | -2.72 ± 0.28
GACAAGCAAUAUUACGAUUU | -0.222 ± 0.063 | 0.406 ± 0.081
GACAAGCAAUAUUACGCAAC | -2.72 ± 0.14 | -2.15 ± 0.24
GACAAGCAAUAUUACGCACU | 0.582 ± 0.11 | -0.112 ± 0.12
GACAAGCAAUAUUACGCGCU | -1.29 ± 0.058 | -0.594 ± 0.073
GACAAGCAAUAUUACGGAAG | -2.75 ± 0.21 | -3.29 ± 0.37

Sequence | self-splicing fitness (ln) (30 °C) | self-splicing fitness (ln) (37 °C)
GACAAGCAAUAUUACGGCCG | -0.239 ± 0.14 | -0.53 ± 0.22
GACAAGCAAUAUUACGGGAA | -2.12 ± 0.097 | -1.36 ± 0.12
GACAAGCAAUAUUACGGUAU | -1.29 ± 0.073 | -1.17 ± 0.087
GACAAGCAAUAUUACGGUCA | -0.777 ± 0.13 | -0.735 ± 0.12
GACAAGCAAUAUUACGUACC | -1.71 ± 0.13 | -1.11 ± 0.12
GACAAGCAAUAUUACGUAGG | -3.07 ± 0.11 | -2.22 ± 0.13
GACAAGCAAUAUUACGUCAU | -3.05 ± 0.15 | -2.62 ± 0.16
GACAAGCAAUAUUACGUGAU | -1.77 ± 0.071 | -1.17 ± 0.09
GACAAGCAAUAUUACGUUUU | -2.69 ± 0.076 | -1.97 ± 0.1
GACCAGCAAUAUUACGAACC | -0.191 ± 0.09 | 0.0652 ± 0.092
GACCAGCAAUAUUACGAACG | -0.447 ± 0.075 | -0.466 ± 0.11
GACCAGCAAUAUUACGAACU | 0.271 ± 0.062 | -0.0101 ± 0.082
GACCAGCAAUAUUACGAAGU | -1.45 ± 0.09 | -0.269 ± 0.1
GACCAGCAAUAUUACGAGCC | -0.222 ± 0.093 | 0.0644 ± 0.14
GACCAGCAAUAUUACGAUGC | -0.38 ± 0.059 | -0.185 ± 0.072
GACCAGCAAUAUUACGAUUU | 0.0538 ± 0.046 | 0.446 ± 0.065
GACCAGCAAUAUUACGCGAA | -0.483 ± 0.059 | -0.138 ± 0.083
GACCAGCAAUAUUACGCGCG | -0.501 ± 0.061 | 0.0713 ± 0.078
GACCAGCAAUAUUACGCGCU | -1.68 ± 0.12 | -0.412 ± 0.12
GACCAGCAAUAUUACGCGGC | -3 ± 0.25 | -2.3 ± 0.29
GACCAGCAAUAUUACGCGGU | -4.81 ± 0.39 | -3.27 ± 0.27
GACCAGCAAUAUUACGCGUU | -3.49 ± 0.12 | -2.54 ± 0.14
GACCAGCAAUAUUACGCUAC | – | -2.47 ± 0.3
GACCAGCAAUAUUACGGAAA | -0.538 ± 0.086 | 0.437 ± 0.096
